One data set concerns the target human C4b (UniProt P0C0L5).
For the next data set, the target named is soluble human C3b (UniProt P01024).
Chain of soluble human C3b (P01024 whole entry, looked up, tested part not stated): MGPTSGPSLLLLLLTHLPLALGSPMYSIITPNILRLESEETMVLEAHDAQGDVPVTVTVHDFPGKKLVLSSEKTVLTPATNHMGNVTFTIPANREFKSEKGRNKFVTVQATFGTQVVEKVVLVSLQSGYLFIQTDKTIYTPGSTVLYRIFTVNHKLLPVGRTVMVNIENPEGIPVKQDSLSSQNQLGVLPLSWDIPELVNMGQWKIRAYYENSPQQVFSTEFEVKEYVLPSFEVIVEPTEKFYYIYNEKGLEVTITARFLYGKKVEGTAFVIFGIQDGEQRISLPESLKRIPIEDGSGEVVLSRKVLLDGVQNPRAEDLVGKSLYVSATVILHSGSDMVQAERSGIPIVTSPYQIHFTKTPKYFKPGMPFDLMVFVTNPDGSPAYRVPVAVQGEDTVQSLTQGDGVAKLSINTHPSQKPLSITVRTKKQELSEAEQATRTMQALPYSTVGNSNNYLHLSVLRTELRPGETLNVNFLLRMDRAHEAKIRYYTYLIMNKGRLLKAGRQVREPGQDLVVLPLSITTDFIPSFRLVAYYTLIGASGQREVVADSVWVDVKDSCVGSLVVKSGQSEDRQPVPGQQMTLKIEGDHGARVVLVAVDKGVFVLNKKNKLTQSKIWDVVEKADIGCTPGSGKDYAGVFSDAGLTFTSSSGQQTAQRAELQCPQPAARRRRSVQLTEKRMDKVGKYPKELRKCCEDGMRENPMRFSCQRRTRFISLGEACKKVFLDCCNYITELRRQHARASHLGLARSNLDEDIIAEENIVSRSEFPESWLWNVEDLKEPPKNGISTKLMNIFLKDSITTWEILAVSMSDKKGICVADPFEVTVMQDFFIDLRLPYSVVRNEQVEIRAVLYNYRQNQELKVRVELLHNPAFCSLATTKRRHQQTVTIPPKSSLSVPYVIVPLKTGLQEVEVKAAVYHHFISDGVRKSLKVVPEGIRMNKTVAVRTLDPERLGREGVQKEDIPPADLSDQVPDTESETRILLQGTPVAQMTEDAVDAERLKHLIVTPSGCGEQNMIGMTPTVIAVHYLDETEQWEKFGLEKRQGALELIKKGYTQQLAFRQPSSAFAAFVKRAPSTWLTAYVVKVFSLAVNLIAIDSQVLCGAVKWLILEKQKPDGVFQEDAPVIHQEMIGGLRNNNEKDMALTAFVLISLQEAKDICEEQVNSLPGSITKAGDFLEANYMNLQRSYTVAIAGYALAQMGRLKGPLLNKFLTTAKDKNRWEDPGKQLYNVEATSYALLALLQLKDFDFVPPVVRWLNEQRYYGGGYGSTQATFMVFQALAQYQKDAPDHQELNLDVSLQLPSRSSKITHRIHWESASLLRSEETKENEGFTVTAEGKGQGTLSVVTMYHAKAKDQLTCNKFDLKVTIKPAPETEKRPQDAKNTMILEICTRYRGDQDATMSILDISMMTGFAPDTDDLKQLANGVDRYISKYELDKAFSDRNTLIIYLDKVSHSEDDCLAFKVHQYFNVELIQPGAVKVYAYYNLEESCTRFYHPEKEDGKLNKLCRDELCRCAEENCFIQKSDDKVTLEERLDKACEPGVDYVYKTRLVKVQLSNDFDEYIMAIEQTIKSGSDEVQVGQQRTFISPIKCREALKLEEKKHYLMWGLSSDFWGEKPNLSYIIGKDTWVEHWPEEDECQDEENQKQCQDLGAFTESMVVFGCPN

Chain of human C4b (P0C0L5 whole entry, looked up): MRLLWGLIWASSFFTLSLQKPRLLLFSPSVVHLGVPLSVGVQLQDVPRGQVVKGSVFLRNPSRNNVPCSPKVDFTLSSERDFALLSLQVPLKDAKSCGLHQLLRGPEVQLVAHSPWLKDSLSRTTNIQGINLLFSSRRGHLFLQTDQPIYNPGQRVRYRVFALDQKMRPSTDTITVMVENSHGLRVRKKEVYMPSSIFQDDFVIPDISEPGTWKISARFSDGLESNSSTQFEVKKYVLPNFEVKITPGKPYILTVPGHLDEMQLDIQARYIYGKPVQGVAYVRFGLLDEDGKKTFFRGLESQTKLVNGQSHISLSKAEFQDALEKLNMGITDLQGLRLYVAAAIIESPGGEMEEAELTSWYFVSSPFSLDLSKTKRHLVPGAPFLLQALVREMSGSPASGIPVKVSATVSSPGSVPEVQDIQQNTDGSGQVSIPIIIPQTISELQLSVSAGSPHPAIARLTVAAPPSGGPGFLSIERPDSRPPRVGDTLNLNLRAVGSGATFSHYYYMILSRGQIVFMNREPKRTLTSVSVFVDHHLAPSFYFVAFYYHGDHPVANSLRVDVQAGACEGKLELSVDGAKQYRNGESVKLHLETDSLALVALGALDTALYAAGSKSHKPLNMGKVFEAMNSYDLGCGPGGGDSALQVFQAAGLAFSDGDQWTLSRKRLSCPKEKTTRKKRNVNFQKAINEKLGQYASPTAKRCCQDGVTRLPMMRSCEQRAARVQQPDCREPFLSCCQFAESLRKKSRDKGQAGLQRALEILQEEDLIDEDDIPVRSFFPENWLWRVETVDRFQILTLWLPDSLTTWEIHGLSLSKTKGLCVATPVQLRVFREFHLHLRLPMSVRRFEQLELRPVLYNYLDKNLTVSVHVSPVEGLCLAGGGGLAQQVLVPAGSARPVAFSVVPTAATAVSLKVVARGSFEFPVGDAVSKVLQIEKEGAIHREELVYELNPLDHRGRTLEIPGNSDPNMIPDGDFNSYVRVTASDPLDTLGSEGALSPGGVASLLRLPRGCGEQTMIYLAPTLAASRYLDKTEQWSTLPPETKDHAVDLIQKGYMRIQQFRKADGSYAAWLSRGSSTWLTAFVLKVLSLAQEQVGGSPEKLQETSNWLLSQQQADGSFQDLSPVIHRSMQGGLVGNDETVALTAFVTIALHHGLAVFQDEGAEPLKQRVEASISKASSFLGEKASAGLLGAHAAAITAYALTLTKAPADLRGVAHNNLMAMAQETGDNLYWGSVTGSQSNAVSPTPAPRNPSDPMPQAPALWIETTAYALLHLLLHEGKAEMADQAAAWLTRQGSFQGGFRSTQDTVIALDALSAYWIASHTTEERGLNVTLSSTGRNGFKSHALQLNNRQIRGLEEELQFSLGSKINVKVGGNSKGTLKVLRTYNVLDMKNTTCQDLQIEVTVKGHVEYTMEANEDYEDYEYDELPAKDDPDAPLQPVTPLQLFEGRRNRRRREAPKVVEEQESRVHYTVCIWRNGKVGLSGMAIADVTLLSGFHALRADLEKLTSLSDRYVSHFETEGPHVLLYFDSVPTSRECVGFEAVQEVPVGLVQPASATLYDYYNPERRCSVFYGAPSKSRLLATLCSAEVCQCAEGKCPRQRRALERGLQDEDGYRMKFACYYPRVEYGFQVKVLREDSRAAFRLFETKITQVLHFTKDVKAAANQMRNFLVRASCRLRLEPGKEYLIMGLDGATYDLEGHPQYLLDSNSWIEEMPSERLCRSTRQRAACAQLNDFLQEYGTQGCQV
Chain of Const. No. 48: HSA-GGSSGG-hCFI; Δ(V565) > VG (chain): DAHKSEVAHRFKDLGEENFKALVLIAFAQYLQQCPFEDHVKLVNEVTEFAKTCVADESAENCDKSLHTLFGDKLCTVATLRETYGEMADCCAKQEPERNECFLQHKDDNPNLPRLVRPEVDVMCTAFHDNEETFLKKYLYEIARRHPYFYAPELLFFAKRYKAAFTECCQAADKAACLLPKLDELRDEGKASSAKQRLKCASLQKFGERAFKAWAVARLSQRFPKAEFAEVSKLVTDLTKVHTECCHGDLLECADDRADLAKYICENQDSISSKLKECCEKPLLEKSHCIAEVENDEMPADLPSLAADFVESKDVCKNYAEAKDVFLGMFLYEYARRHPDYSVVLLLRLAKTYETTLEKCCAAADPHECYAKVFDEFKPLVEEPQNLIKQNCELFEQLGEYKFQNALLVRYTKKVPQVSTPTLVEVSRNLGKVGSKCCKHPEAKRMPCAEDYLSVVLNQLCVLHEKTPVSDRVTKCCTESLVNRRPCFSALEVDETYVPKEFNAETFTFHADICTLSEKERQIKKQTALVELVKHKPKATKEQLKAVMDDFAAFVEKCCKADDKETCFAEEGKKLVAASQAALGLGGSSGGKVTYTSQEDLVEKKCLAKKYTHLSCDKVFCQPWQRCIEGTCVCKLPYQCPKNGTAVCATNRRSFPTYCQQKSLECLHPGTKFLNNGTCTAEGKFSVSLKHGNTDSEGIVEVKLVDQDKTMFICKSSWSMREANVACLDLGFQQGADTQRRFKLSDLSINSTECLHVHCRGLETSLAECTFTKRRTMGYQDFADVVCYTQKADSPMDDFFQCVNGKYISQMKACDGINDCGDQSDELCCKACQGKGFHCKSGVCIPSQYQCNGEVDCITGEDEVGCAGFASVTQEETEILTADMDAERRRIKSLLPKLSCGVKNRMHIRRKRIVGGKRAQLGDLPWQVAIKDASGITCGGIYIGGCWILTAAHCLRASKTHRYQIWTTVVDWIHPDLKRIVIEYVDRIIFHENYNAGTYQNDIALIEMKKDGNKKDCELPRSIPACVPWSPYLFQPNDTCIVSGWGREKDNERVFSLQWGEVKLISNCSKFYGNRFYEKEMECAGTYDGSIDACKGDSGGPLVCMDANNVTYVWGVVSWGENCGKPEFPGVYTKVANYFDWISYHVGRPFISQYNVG

As for “Const. No. 58: HSA-GGSSGG-hCFI; D395A; E416A; D425A”, the C4c ref fold with human C4b was found to be 0.06 fold. For the same substance, in the data set with soluble human C3b, the iC3b ref fold was found to be 0.77 fold.

Regarding Const. No. 41: HSA-GGSSGG-hCFI; L73F, in the data set with human C4b, the C4c ref fold stood at 2.36 fold. Also, in the data set with soluble human C3b, the iC3b ref fold stood at 0.9 fold.

In the case of “Const. No. 12: HSA-GGSSGG-hCFI; Δ(Y496; D497)”, the C4c ref fold in the data set with human C4b is 0.9 fold. Moreover, in the data set with soluble human C3b, the iC3b ref fold is 0.18 fold.

With “Const. No. 80: HSA-GGSSGG-hCFI; Δ(1-KVTYTS-6)(SEQ ID NO: 35) > RSPSASDLP (SEQ ID NO: 36)”, in the data set with human C4b, the C4c ref fold turned out to be 3.07 fold. The iC3b ref fold with soluble human C3b came to 0.91 fold.

As to Const. No. 35: HSA-GGSSGG-hCFI; R371E, in the data set with human C4b, the C4c ref fold came out at 2.02 fold. In the data set with soluble human C3b, the iC3b ref fold is 0.04 fold.

“Const. No. 77: HSA-GGSSGG-hCFI; H383K; R388Q; E392Q; Y393T; K419M”: in the data set with human C4b, the C4c ref fold was found to be 3.81 fold. For the same substance, the iC3b ref fold with soluble human C3b amounted to 1.21 fold.

As for Const. No. 2: HSA-GGSSGG-hCFI; F559H, in the data set with human C4b, the C4c ref fold stood at 0.58 fold. In addition, the iC3b ref fold with soluble human C3b is 1.73 fold.

As for Const. No. 28: HSA-GGSSGG-hCFI; E401A, the C4c ref fold with human C4b was found to be 0.86 fold. Moreover, in the data set with soluble human C3b, the iC3b ref fold worked out at 1.87 fold.

Take Const. No. 51: HSA-GGSSGG-hCFI; E416R: the C4c ref fold in the data set with human C4b was 1.17 fold. The iC3b ref fold in the data set with soluble human C3b stood at 1.87 fold.

Turning to “Const. No. 91: HSA-GGSSGG-hCFI; T377A; E457G; N531G”, the C4c ref fold with human C4b was determined as 4.59 fold. Besides, the iC3b ref fold with soluble human C3b is 1.7 fold.

Const. No. 93: HSA-GGSSGG-hCFI; T377A: in the data set with human C4b, the C4c ref fold was found to be 2.36 fold. The iC3b ref fold in the data set with soluble human C3b was found to be 1.09 fold.

On to “Const. No. 43: HSA-GGSSGG-hCFI; Δ(275-CAGFASVAQE-284)(SEQ ID NO: 31) > CEEDRQQNIPKGLARSAQGEAEIETE (SEQ ID NO: 32)”, for which the C4c ref fold with human C4b was 1.54 fold. Besides, the iC3b ref fold in the data set with soluble human C3b worked out at 0.89 fold.

Const. No. 42: HSA-GGSSGG-hCFI; L73D: in the data set with human C4b, the C4c ref fold is 2.33 fold. Also, in the data set with soluble human C3b, the iC3b ref fold was determined as 0.08 fold.

On to Const. No. 60: HSA-GGSSGG-hCFI; K368D, for which the C4c ref fold with human C4b came to 1.39 fold. The iC3b ref fold with soluble human C3b was found to be 0.03 fold.

On to Const. No. 17: HSA-GGSSGG-hCFI; Y496L, for which the C4c ref fold with human C4b turned out to be 1.54 fold. Besides, in the data set with soluble human C3b, the iC3b ref fold came out at 0.44 fold.

Const. No. 45: HSA-GGSSGG-hCFI; R484A: the C4c ref fold with human C4b was found to be 1.3 fold. The iC3b ref fold with soluble human C3b turned out to be 0.7 fold.

On to “Const. No. 48: HSA-GGSSGG-hCFI; Δ(V565) > VG”, for which the C4c ref fold with human C4b is 0.67 fold. Further, the iC3b ref fold with soluble human C3b came to 0 fold.

Regarding Const. No. 21: HSA-GGSSGG-hCFI; K423R, in the data set with human C4b, the C4c ref fold was 1.44 fold. In addition, in the data set with soluble human C3b, the iC3b ref fold was determined as 0.55 fold.

On to Const. No. 25: HSA-GGSSGG-hCFI; R62H, for which, in the data set with human C4b, the C4c ref fold is 0.74 fold. Also, in the data set with soluble human C3b, the iC3b ref fold was 0.29 fold.

For Const. No. 13: HSA-GGSSGG-hCFI; S499G, the C4c ref fold with human C4b was 0.72 fold. In the data set with soluble human C3b, the iC3b ref fold was determined as 0.34 fold.

With Const. No. 36: HSA-GGSSGG-hCFI; A342R, the C4c ref fold with human C4b came to 2.08 fold. The iC3b ref fold in the data set with soluble human C3b was found to be 1.73 fold.

With Const. No. 4: HSA-GGSSGG-hCFI; L307H, the C4c ref fold with human C4b was 3.55 fold. Moreover, the iC3b ref fold with soluble human C3b was 0.89 fold.

Take Const. No. 32: HSA-GGSSGG-hCFI; N402R: the C4c ref fold in the data set with human C4b came out at 0.98 fold. In addition, the iC3b ref fold with soluble human C3b is 1.47 fold.

Turning to “Const. No. 75: HSA-GGSSGGSSGG-Alligator CFI”, in the data set with human C4b, the C4c ref fold is 0.12 fold. Further, the iC3b ref fold with soluble human C3b is -0.03 fold.

With Const. No. 5: HSA-GGSSGG-hCFI; L307W, the C4c ref fold with human C4b was 3.89 fold. The iC3b ref fold in the data set with soluble human C3b is 0.79 fold.

With Const. No. 59: HSA-GGSSGG-hCFI; N402D, in the data set with human C4b, the C4c ref fold was found to be 1.66 fold. In addition, the iC3b ref fold in the data set with soluble human C3b worked out at 0.74 fold.

Const. No. 24: HSA-GGSSGG-hCFI; R62L: the C4c ref fold with human C4b was 0.59 fold. Besides, the iC3b ref fold with soluble human C3b stood at 0.19 fold.

For the substance “Const. No. 67: HSA-GGSSGG-hCFI-GGSSGG-hCR1; CCP1; CCP2; CCP3; CCP4”, the C4c ref fold in the data set with human C4b was found to be 3.2 fold. In addition, in the data set with soluble human C3b, the iC3b ref fold is -0.01 fold.

As to Const. No. 27: HSA-GGSSGG-hCFI; E401R, the C4c ref fold with human C4b is 2.93 fold. In addition, in the data set with soluble human C3b, the iC3b ref fold was found to be 2.12 fold.

For “Const. No. 79: HSA-GGSSGG-hCFI; Q69H; L73F; G79E; T80I; L83S; N84H”, the C4c ref fold with human C4b was determined as 3.36 fold. For the same substance, the iC3b ref fold with soluble human C3b came to 1.63 fold.

On to Const. No. 8: HSA-GGSSGG-hCFI; P433G, for which the C4c ref fold in the data set with human C4b amounted to 0.39 fold. The iC3b ref fold with soluble human C3b came to 0.14 fold.

For Const. No. 22: HSA-GGSSGG-hCFI; R62A, the C4c ref fold with human C4b was 1.07 fold. The iC3b ref fold with soluble human C3b was found to be 0.23 fold.

On to Const. No. 26: HSA-GGSSGG-hCFI; E401K, for which, in the data set with human C4b, the C4c ref fold is 1.92 fold. The iC3b ref fold in the data set with soluble human C3b was determined as 2.37 fold.

In the case of Const. No. 3: HSA-GGSSGG-hCFI; L307F, in the data set with human C4b, the C4c ref fold was 3.48 fold. Further, the iC3b ref fold in the data set with soluble human C3b worked out at 1.01 fold.

As to Const. No. 7: HSA-GGSSGG-hCFI; P433A, the C4c ref fold with human C4b was found to be 0.81 fold. The iC3b ref fold in the data set with soluble human C3b was found to be 0.8 fold.

Regarding “Const. No. 57: HSA-GGSSGG-hCFI; D395A; E416A”, in the data set with human C4b, the C4c ref fold was found to be 0.06 fold. Moreover, the iC3b ref fold with soluble human C3b amounted to 0.76 fold.

Regarding “Const. No. 19: HSA-GGSSGG-hCFI; S499A; I500K”, in the data set with human C4b, the C4c ref fold is -0.05 fold. Further, the iC3b ref fold in the data set with soluble human C3b came out at 0.02 fold.

As for “Const. No. 78: HSA-GGSSGG-hCFI; K51D; T59E; R61D”, the C4c ref fold in the data set with human C4b is -0.24 fold. The iC3b ref fold with soluble human C3b amounted to 0 fold.

Regarding Const. No. 16: HSA-GGSSGG-hCFI; S499V, the C4c ref fold in the data set with human C4b came out at 1.24 fold. Also, the iC3b ref fold with soluble human C3b was determined as 0.18 fold.

Const. No. 47: HSA-GGSSGG-hCFI; R484E: the C4c ref fold in the data set with human C4b was determined as 0.93 fold. In the data set with soluble human C3b, the iC3b ref fold was found to be 0.35 fold.

With “Const. No. 56: HSA-GGSSGG-hCFI; D395A; D425A”, the C4c ref fold with human C4b is 0.65 fold. Also, the iC3b ref fold with soluble human C3b worked out at 1.77 fold.

On to Const. No. 30: HSA-GGSSGG-hCFI; N402G, for which the C4c ref fold with human C4b was 0.73 fold. Further, the iC3b ref fold with soluble human C3b turned out to be 1.44 fold.

In the case of “Const. No. 49: HSA-GGSSGG-hCFI; Δ(V565) > VY”, the C4c ref fold in the data set with human C4b was found to be 1.47 fold. Besides, the iC3b ref fold with soluble human C3b is 0.15 fold.

Consider “Const. No. 89: HSA-GGSSGG-hCFI; T377G; E457G; N531G-GGSSGG-hCR1; CCP15; CCP16; CCP17; hFH; CCP4-GGGGGGGGGGGG-hFH; CCP19; CCP20”, for which the C4c ref fold with human C4b came out at 3.21 fold. The iC3b ref fold with soluble human C3b stood at 0.05 fold.

As to “Const. No. 64: HSA-GGSSGG-hCFI-GGSSGG-hCR1; CCP8; CCP9; CCP10”, the C4c ref fold with human C4b came out at 4.11 fold. Also, in the data set with soluble human C3b, the iC3b ref fold came out at 0.06 fold.

Take Const. No. 40: HSA-GGSSGG-hCFI; T59E: the C4c ref fold with human C4b is 2.17 fold. The iC3b ref fold with soluble human C3b was determined as 0.68 fold.

Consider Const. No. 10: HSA-GGSSGG-hCFI; Δ(Y496), for which the C4c ref fold in the data set with human C4b is 0.02 fold. Besides, the iC3b ref fold with soluble human C3b is 0.03 fold.

On to Const. No. 55: HSA-GGSSGG-hCFI; D395R, for which the C4c ref fold with human C4b is 1.38 fold. Also, the iC3b ref fold in the data set with soluble human C3b worked out at 1.85 fold.

With Const. No. 50: HSA-GGSSGG-hCFI; E416K, the C4c ref fold with human C4b was found to be 1.23 fold. For the same substance, the iC3b ref fold in the data set with soluble human C3b is 1.89 fold.

“Const. No. 20: HSA-GGSSGG-hCFI; T495F; Y496L; S499G; I500K”: the C4c ref fold with human C4b came to 0.05 fold. Also, the iC3b ref fold with soluble human C3b was 0 fold.

Take “Const. No. 74: HSA-GGSSGGSSGG-Bovine CFI”: in the data set with human C4b, the C4c ref fold turned out to be 2.19 fold. In addition, in the data set with soluble human C3b, the iC3b ref fold is 1.67 fold.

Regarding Const. No. 15: HSA-GGSSGG-hCFI; S499K, the C4c ref fold with human C4b turned out to be 1.98 fold. The iC3b ref fold with soluble human C3b came to 0.67 fold.

Take “Const. No. 76: HSA-GGSSGG-hCFI; H383K; D385N; K387S; R388Q; E392Q; Y393T; D395K; K419M; D420H; G421T; N422G; D425E”: the C4c ref fold with human C4b worked out at 4.46 fold. In the data set with soluble human C3b, the iC3b ref fold was found to be 2.11 fold.

In the case of Const. No. 23: HSA-GGSSGG-hCFI; R62E, the C4c ref fold in the data set with human C4b was determined as 0.1 fold. The iC3b ref fold with soluble human C3b amounted to 0.04 fold.

The record behind these values is patent US20250011379.
